Where “and” joins values, the source holds several entries; their conditions need not be identical. Equal values may be shown once.

For one data set, the target named is His57 (UniProt position 58, HYSGGHTMTNK). Put plainly: NMR. As to conditions: 283 K (10 °C), 50 mM KCl plus 20 mM potassium phosphate, folded, 0.5 mM protein.
In data set [1] the target is His98 (UniProt position 99, NFPNYHQTSEI). Put plainly: NMR. As to conditions: 283 K (10 °C), 50 mM KCl plus 20 mM potassium phosphate, folded, 0.5 mM protein.
The next data set addresses His52 (UniProt position 53, FTWSQHYSGGH). In words: NMR. As to conditions: 283 K (10 °C), 50 mM KCl plus 20 mM potassium phosphate, folded, 0.5 mM protein.
Data set [2] deals with His98 (UniProt position 99, SEKFSHEQEVK). The conditions noted are these: apo chicken liver BABP; cited from earlier work.
Where [3] appears, read: 0.05% NaN3, holo: doubly ligated I-BABP:GCDA:GCA = 1.0:1.5:1.5 complex.

The pKa is the pH at which an ionisable group is half protonated. Take “Ileal bile acid-binding protein (I-BABP, gastrotropin, FABP6) (Homo sapiens)”: the pKa in the data set with His57 (0.05% NaN3, apo (ligand-free)) was 6.4; with His57 (setting [3]), 7.9; in the data set with His98 [1] (0.05% NaN3, apo (ligand-free)), 6.6 and 6.7 and 6.8; in the data set with His98 [1] (setting [3]), 7.0 and 7.2; in the data set with His52 (0.05% NaN3, apo (ligand-free)), 6.7; in the data set with His52 (setting [3]), 6.6 and 6.5 and 6.8.

With “Liver bile acid-binding protein (cL-BABP, liver basic fatty acid-binding protein) (Gallus gallus)”, in the data set with His98 [2], the pKa is given as 4.7.

These data come from article PMC6423008.
